Data published in publication PMC5988983.

B1: γ-RSD (γ-resorcylate decarboxylase) (Polaromonas sp. JS666) (protein)
chain: MNGKIALEEHFATEETLMDSAGFVPDKDWPELRSRLLDIQDRRVRLMDEHGIETMILSLNAPAVQAIADSTRANETARRANDFLAEQVAKQPTRFRGFAALPMQDPELAARELERCVKELGFVGALVNGFSQDNRSAVPLYYDMAQYWPFWETVQALDVPFYLHPRNPLPSDARIYDGHAWLLGPTWAFGQETAVHALRLMGSGLFDKYPALKIILGHMGEGLPYSMWRIDHRNAWIKTTPKYPAKRKIVDYFNENFYLTTSGNFRTQTLIDAILEIGADRILFSTDWPFENIDHAADWFENTSISEADRKKIGWGNAQNLFKLNR

Experiments:
[1] = biological target: γ-Resorcylate decarboxylase (γ-RSD) from Polaromonas sp. JS666, His6-tagged (Polaromonas sp. JS666); experiment: crystal structure
purified protein [2] = substrate: Cc1cc(O)c(C(=O)O)c(O)c1; experiment: purified protein; assay type: biochemical, Polaromonas sp. JS666; details: 50 mM HEPES pH 7.0, 30 °C
purified protein [3] = substrate: O=C(O)c1c(O)cc(O)cc1O; experiment: purified protein; assay type: biochemical, Polaromonas sp. JS666; details: 50 mM HEPES pH 7.0, 30 °C
purified protein [4] = substrate: O=C(O)c1c(O)cccc1O; experiment: purified protein; assay type: biochemical, Polaromonas sp. JS666; details: 50 mM HEPES pH 7.0, 30 °C
purified protein [5] = substrate: O=C(O)c1cccc(O)c1O; experiment: purified protein; assay type: biochemical, Polaromonas sp. JS666; details: 50 mM HEPES pH 7.0, 30 °C

Row | Molecule | stoichiometry N [1] | Km (purified protein [2]) [µM] | kcat (purified protein [2]) [s⁻¹] | kcat/Km (purified protein [2]) [M⁻¹ s⁻¹] | Km (purified protein [3]) [µM] | kcat (purified protein [3]) [s⁻¹] | kcat/Km (purified protein [3]) [M⁻¹ s⁻¹] | Km (purified protein [4]) [µM] | kcat (purified protein [4]) [s⁻¹] | kcat/Km (purified protein [4]) [M⁻¹ s⁻¹] | Km (purified protein [5]) [µM] | kcat (purified protein [5]) [s⁻¹] | kcat/Km (purified protein [5]) [M⁻¹ s⁻¹]
1 | γ-Resorcylate decarboxylase (γ-RSD) from Polaromonas sp. JS666, His6-tagged (enzyme) | 4 | – | – | – | – | – | – | – | – | – | – | – | –
2 | B1 | – | 79 ± 6 | 0.38 ± 0.01 | 4800 ± 400 | 48 ± 1 | 0.18 ± 0.01 | 3800 ± 300 | 32 ± 2 | 0.44 ± 0.01 | 13000 ± 1000 | 111 ± 11 | 0.47 ± 0.02 | 4200 ± 500
